This assay deals with human IGF2R extra-cellular domains 1-15 fused at the C-terminal to rat CD4 (domains 3 + 4), biotin acceptor … (human, UniProt P11717 41-2304, biotin on the BirA acceptor tag). Put plainly: SPR. Background: In SPR one partner is held on a chip, and binding of the other changes the refractive index at the surface.

As a reminder, the Kd is the concentration at which binding is half-saturated.

B1: human glu-plasminogen (88 KD) (natural protein)
chain: EPLDDYVNTQGASLFSVTKKQLGAGSIEECAAKCEEDEEFTCRAFQYHSKEQQCVIMAENRKSSIIIRMRDVVLFEKKVYLSECKTGNGKNYRGTMSKTKNGITCQKWSSTSPHRPRFSPATHPSEGLEENYCRNPDNDPQGPWCYTTDPEKRYDYCDILECEEECMHCSGENYDGKISKTMSGLECQAWDSQSPHAHGYIPSKFPNKNLKKNYCRNPDRELRPWCFTTDPNKRWELCDIPRCTTPPPSSGPTYQCLKGTGENYRGNVAVTVSGHTCQHWSAQTPHTHNRTPENFPCKNLDENYCRNPDGKRAPWCHTTNSQVRWEYCKIPSCDSSPVSTEQLAPTAPPELTPVVQDCYHGDGQSYRGTSSTTTTGKKCQSWSSMTPHRHQKTPENYPNAGLTMNYCRNPDADKGPWCFTTDPSVRWEYCNLKKCSGTEASVVAPPPVVLLPDVETPSEEDCMFGNGKGYRGKRATTVTGTPCQDWAAQEPHRHSIFTPETNPRAGLEKNYCRNPDGDVGGPWCYTTNPRKLYDYCDVPQCAAPSFDCGKPQVEPKKCPGRVVGGCVAHPHSWPWQVSLRTRFGMHFCGGTLISPEWVLTAAHCLEKSPRPSSYKVILGAHQEVNLEPHVQEIEVSRLFLEPTRKDIALLKLSSPAVITDKVIPACLPSPNYVVADRTECFITGWGETQGTFGAGLLKEAQLPVIENKVCNRYEFLNGRVQSTELCAGHLAGGTDSCQGDSGGPLVCFEKDKYILQGVTSWGLGCARPNKPGVYVRVSRFVTWIEGVMRNN
Turning to B1, the dissociation constant (Kd) was 43.5 nM.

B2: bovine β-glucuronidase (290 KD) (enzyme)
chain: LQGGMLYPRESRSRERKELDGLWSFRADFSDNRRQGFEQQWYRAPLRESGPTLDMPVPSSFNDVGQDGQLRSFVGWVWYEREITLPQRWTEDLGTRVVLRIGSAHYYAIVWVNGVHVLEHEGGHLPFEADISKLVQSGPLSSCRITIAINNTLSPHTLPPGTILYKTDPSMYPKGYFVQNTKFDFFNYAGLHRSVLLYTTPTTYIDDITVTTDMDQDIGLVNYQIIVQGSDHFQVDVSLLDEEGKVMAKGAGAEGQLQVPSAHLWWPYLMHEHPAYLYSLEVKLTAQTAVGPVSDFYTLPVGIRTVAVTKSQFLINGKPFYFRGVNKHEDADIRGKGFDWPLLVKDFNLLRWLGANAFRTSHYPYSEEVLQLCDRYGIVVIDESPGVGIVLVESFSNVSLQHHLEVMEEMIRRDKNHPAVVMWSLANEPASFLKPAGYYFKTLIAHTKALDPSRPVTFVTNTNYEADLGAPYVDIICVNSYYSWYHDYGHMEVIQLQLATQFENWYKAYQKPMIQSEYGADAIEGFHEDPPLMFSEEYQKGLLQQYHVVLDQKRKEYVVGELIWNFADFMTNQSPVRMIGNRKGIFTRQRQPKSAAFLLRERYWKLANETRYQRSAVTSQCVGSGLFTV
modifications: mannose 6-phosphate (M6P-beta-glucuronidase)
Consider B2, for which the dissociation constant (Kd) came out at 52.3 nM.

Source of the values: paper PMC6684648 (2019).
